Results on 1 substance are retold here after article PMC10689437.

The target in the assay is SARS-CoV-2 non-structural protein 3 (nsp3), released from the expressed HA-nsp3-4-V5 polyprotein (SARS-CoV-2). Put plainly: cryo-EM structure.

Usually stoichiometry N stands for a count of units in the complex or per binding partner. As to “SARS-CoV-2 non-structural protein 3 (nsp3), released from the expressed HA-nsp3-4-V5 polyprotein (natural protein)”, the stoichiometry N turned out to be 6.
